In paper PMC12418098, “A single helicase-binding domain of DnaG couples with hexameric helicase DnaB in Bacillus stearothermophilus”:
Several values for one entry are separate records, joined by “and”; a condition that tells them apart may be missing. Equal entries are not always repeated. Each block holds one molecule with its values, some of them ahead of it.

What was measured:
[1] = molecular target: helicase DnaB hexamer from Bacillus stearothermophilus (Bacillus stearothermophilus) (UniProt Q9X4C9); assay: ITC; DnaB hexamer without ssDNA titrated by DnaG(HBD); 25°C; 25 mmol/L Tris pH 8.0, 100 mmol/L NaCl
[2] = molecular target: helicase DnaB hexamer from Bacillus stearothermophilus (Bacillus stearothermophilus) (UniProt Q9X4C9); assay: ITC; DnaG(HBD) (200 μmol/L, needle) titrated into the pre-formed, gel-filtered DnaB6/dT16 complex (10 μmol/L, cell); 25°C; 25 mmol/L Tris pH 8.0, 100 mmol/L NaCl; one-set-of-sites model
DnaB helicase;DnaG(HBD) [3] = molecular target: T1, DnaB helicase;DnaG(HBD) (Bacillus stearothermophilus;Bacillus …, UniProt Q9X4C9;Q9X4D0 1-454;455-597, |); assay: EMSA; DnaG(HBD) 1-15 pmol added to DnaB/dT16; 5 mM MgCl2, 2 mM ATP; EMSA: 25 mM Tris pH 8.0, 100 mM NaCl, 10% glycerol, 1 mM DTT, 5 mM MgCl2, 2 mM ATP, 4 C, native PAGE (6% in Methods, 8% in legend); ITC: 25 mM Tris pH 8.0, 100; conditions: protein: recombinant;recombinant; tags: GST tag removed with PreScission (pGEX-6p-1);GST tag removed with PreScission (pGEX-6p-1); chain copies: 6;1; label: 5'-6-FAM; single strand
T1 sequence 1: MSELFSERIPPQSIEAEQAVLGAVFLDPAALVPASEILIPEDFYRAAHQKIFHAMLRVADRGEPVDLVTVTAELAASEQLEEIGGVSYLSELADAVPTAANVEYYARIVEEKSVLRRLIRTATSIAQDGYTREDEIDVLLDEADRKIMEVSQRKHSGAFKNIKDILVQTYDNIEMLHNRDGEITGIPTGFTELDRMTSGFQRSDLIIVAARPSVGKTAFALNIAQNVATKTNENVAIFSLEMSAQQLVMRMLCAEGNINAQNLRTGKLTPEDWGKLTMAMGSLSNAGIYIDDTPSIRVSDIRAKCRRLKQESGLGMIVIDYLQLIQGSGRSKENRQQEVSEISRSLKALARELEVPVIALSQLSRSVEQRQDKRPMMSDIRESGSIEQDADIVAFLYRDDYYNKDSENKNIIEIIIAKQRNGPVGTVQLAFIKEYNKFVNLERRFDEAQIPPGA
T1 sequence 2: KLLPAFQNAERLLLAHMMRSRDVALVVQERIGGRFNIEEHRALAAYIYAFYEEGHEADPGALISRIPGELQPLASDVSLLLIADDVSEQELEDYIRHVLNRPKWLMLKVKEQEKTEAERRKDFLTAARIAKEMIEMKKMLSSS

[4] = molecular target: helicase-binding domain of primase DnaG from Bacillus stearothermophilus (Bacillus stearothermophilus) (UniProt Q9X4D0); assay: ITC; reverse titration: pre-formed DnaB6/dT16 complex (200 μmol/L, needle) titrated into DnaG(HBD) (10 μmol/L, cell); 25°C; 25 mmol/L Tris pH 8.0, 100 mmol/L NaCl; one-set-of-sites model
DnaB helicase = molecular target: T2, DnaB helicase (Bacillus stearothermophilus, UniProt Q9X4C9 1-454); assay: gel filtration with SDS-PAGE and SYBR Green II staining; binary complex; EMSA: 25 mM Tris pH 8.0, 100 mM NaCl, 10% glycerol, 1 mM DTT, 5 mM MgCl2, 2 mM ATP, 4 C, native PAGE (6% in Methods, 8% in legend); ITC: 25 mM Tris pH 8.0, 100; conditions: protein: recombinant; tags: GST tag removed with PreScission (pGEX-6p-1); chain copies: 6; label: none stated; single strand
T2 sequence: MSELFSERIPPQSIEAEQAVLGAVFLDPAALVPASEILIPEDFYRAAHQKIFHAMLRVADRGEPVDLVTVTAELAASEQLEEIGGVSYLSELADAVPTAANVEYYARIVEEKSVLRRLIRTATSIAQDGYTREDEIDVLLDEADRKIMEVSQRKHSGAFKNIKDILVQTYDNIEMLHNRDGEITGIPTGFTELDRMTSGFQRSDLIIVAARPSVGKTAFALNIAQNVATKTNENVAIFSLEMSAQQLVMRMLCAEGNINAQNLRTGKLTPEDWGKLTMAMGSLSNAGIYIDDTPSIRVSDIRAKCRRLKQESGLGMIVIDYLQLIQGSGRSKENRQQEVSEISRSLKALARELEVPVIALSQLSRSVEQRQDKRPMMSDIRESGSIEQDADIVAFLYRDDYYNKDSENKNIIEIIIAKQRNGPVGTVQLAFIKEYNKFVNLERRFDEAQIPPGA

DnaB helicase;DnaG(HBD) [5] = molecular target: T1, DnaB helicase;DnaG(HBD); assay: gel filtration with SDS-PAGE and native PAGE; ternary complex, single peak; ITC Kd of Table 1 (about 1 uM) is HBD binding to preformed DnaB6/dT16, a protein-protein contact, so not listed as a value; EMSA: 25 mM Tris pH 8.0, 100 mM NaCl, 10% glycerol, 1 mM DTT, 5 mM MgCl2, 2 mM ATP, 4 C, native PAGE (6% in Methods, 8% in legend); ITC: 25 mM Tris pH 8.0, 100; conditions: protein: recombinant;recombinant; tags: GST tag removed with PreScission (pGEX-6p-1);GST tag removed with PreScission (pGEX-6p-1); chain copies: 6;1; label: none stated; single strand

- stoichiometry N (DnaG(HBD) per DnaB hexamer) [1]: 3
- Kd [2]: 960 nM and 1130 nM and 1070 nM
- dH [2]: -22.8 kcal/mol and -22.7 kcal/mol and -22.2 kcal/mol
- stoichiometry N [2]: 1.09 and 1.02 and 0.981
Molecule: helicase-binding domain of primase DnaG from Bacillus stearothermophilus (from UniProt Q9X4D0 1-597) (domain or fragment)

Molecule: TTTTTTTTTTTTTTTT (ssDNA) [dT16 (6-FAM)]
- binding result (DnaB helicase;DnaG(HBD) [3]): binds

- Kd [4]: 1010 nM and 1110 nM and 890 nM
- dH [4]: -11.2 kcal/mol and -9.18 kcal/mol and -9.75 kcal/mol
- stoichiometry N [4]: 0.987 and 1.08 and 1.05
B1: helicase DnaB hexamer from Bacillus stearothermophilus (enzyme)
chain: MSELFSERIPPQSIEAEQAVLGAVFLDPAALVPASEILIPEDFYRAAHQKIFHAMLRVADRGEPVDLVTVTAELAASEQLEEIGGVSYLSELADAVPTAANVEYYARIVEEKSVLRRLIRTATSIAQDGYTREDEIDVLLDEADRKIMEVSQRKHSGAFKNIKDILVQTYDNIEMLHNRDGEITGIPTGFTELDRMTSGFQRSDLIIVAARPSVGKTAFALNIAQNVATKTNENVAIFSLEMSAQQLVMRMLCAEGNINAQNLRTGKLTPEDWGKLTMAMGSLSNAGIYIDDTPSIRVSDIRAKCRRLKQESGLGMIVIDYLQLIQGSGRSKENRQQEVSEISRSLKALARELEVPVIALSQLSRSVEQRQDKRPMMSDIRESGSIEQDADIVAFLYRDDYYNKDSENKNIIEIIIAKQRNGPVGTVQLAFIKEYNKFVNLERRFDEAQIPPGA

Molecule: TTTTTTTTTTTTTTTT (ssDNA) [dT16]
- binding result (DnaB helicase): binds
- binding result (DnaB helicase;DnaG(HBD) [5]): binds
